# Literature values in article PMC3264399.
# Tests used:
# ephrin-B3 (Homo sapiens) = ephrin-B3 (Homo sapiens) (UniProt Q15768)
# ephrin-B2 (Homo sapiens) = ephrin-B2 (Homo sapiens) (UniProt P52799)
# CD46 (Homo sapiens) = CD46 (Homo sapiens) (UniProt P15529)
# Sequence of CD46 (Homo sapiens) (P15529 35-392): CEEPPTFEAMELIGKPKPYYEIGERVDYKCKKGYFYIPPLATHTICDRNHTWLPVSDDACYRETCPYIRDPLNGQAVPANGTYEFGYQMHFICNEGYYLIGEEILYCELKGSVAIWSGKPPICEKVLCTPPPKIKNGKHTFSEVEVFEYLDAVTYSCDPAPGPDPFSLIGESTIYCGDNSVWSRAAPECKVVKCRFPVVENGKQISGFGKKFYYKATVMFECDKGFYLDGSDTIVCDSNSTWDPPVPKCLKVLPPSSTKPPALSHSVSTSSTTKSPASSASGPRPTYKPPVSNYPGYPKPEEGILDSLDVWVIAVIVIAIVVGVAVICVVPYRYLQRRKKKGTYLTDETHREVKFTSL
# Sequence of NiV-G (Q9IH62 whole entry): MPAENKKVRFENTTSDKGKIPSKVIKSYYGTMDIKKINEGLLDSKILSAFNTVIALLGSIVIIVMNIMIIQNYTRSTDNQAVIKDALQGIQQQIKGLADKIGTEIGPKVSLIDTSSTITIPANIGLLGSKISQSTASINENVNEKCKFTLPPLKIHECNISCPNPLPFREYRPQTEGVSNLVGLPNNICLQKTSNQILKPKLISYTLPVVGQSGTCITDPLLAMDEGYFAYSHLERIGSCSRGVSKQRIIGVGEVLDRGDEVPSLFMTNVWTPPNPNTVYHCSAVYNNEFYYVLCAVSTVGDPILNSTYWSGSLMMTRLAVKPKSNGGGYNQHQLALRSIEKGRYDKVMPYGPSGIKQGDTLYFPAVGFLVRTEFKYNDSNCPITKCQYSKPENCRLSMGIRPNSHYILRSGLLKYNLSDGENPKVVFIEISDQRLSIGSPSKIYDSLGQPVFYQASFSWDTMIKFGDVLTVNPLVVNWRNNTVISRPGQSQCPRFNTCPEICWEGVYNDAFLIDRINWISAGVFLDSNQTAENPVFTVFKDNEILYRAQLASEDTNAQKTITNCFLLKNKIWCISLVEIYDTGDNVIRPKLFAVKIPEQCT
# Sequence of ephrin-B3 (Homo sapiens) (Q15768 28-340): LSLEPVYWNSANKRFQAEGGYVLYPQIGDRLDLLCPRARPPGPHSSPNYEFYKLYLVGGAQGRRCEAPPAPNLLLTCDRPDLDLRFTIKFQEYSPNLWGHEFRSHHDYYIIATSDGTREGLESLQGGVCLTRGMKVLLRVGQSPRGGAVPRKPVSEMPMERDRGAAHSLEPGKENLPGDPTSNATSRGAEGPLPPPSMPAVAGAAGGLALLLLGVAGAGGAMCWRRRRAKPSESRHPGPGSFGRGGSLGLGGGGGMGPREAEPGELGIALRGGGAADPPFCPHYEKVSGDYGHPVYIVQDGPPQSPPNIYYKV
# Sequence of ephrin-B2 (Homo sapiens) (P52799 28-333): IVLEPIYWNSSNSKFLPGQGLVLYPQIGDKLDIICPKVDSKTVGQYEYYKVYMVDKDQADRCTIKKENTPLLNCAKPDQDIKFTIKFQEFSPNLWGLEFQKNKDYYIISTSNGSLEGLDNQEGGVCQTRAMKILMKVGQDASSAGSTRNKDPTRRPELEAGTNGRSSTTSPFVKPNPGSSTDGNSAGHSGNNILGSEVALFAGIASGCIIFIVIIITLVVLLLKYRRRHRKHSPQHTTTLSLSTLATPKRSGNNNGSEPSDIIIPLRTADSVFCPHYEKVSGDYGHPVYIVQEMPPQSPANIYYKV
# Sequence of MeV-H (P08362 157-607): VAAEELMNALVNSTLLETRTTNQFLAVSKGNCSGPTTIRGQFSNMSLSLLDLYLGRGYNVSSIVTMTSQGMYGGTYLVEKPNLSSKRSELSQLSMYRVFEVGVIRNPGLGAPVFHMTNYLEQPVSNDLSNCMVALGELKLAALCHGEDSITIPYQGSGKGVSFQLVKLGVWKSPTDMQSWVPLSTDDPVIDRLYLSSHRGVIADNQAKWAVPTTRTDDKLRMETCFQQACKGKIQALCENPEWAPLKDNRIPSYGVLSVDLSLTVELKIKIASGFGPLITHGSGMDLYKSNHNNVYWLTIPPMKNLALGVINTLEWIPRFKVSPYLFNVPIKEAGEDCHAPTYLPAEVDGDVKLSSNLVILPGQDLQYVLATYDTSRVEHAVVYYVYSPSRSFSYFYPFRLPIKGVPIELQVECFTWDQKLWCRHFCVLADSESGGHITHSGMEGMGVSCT
Substance,Kd (ephrin-B3 (Homo sapiens)),Kd (ephrin-B2 (Homo sapiens)),Kd (CD46 (Homo sapiens))
NiV-G (from UniProt Q9IH62),0.58 nM,0.06 nM,
MeV-H (from UniProt P08362),,,2200 nM
